Data reported in paper PMC7929516, “Hallmarks of Alpha- and Betacoronavirus non-structural protein 7+8 complexes” (Science Advances, 2021).

B1: FIPV nsp7 (natural protein)
chain: SKLTEMKCTNVVLLGLLSKMHVESNSKEWNYCVGLHNEINLCDDPDAVLEKLLALIAFFLSKHNTCDLSDLIESYFENTTILQ
notes: also called feline CoV nsp7
B2: TGEV nsp7 (natural protein)
chain: SKLTEMKCTNVVLLGLLSKMHVESNSKEWNYCVGLHNEINLCDDPEIVLEKLLALIAFFLSKHNTCDLSELIESYFENTTILQ
B3: HCoV-229E nsp7 (natural protein)
chain: SKLTDLKCTNVVLMGILSNMNIASNSKEWAYCVEMHNKINLCDDPETAQELLLALLAFFLSKHSDFGLGDLVDSYFENDSILQ
B4: PEDV nsp7 (natural protein)
chain: SKLTDIKCSNVVLLGCLSSMNVSANSTEWAYCVDLHNKINLCNDPEKAQEMLLALLAFFLSKNSAFGLDDLLESYFNDNSMLQ
B5: MERS-CoV nsp7 (natural protein)
chain: SKLTDLKCTSVVLLSVLQQLHLEANSRAWAFCVKCHNDILAATDPSEAFEKFVSLFATLMTFSGNVDLDALASDIFDTPSVLQ

How the values were obtained:
[1] = biological target: PEDV nsp7-8-His6 precursor (PEDV (strain CV777))
[2] = biological target: SARS-CoV-2 nsp7-8-His6 precursor (SARS-CoV-2); assay: native MS
[3] = biological target: HCoV-229E nsp7-8-His6 precursor (HCoV-229E); assay: native MS
[4] = biological target: SARS-CoV nsp7-8-His6 precursor (SARS-CoV (strain Frankfurt-1)); assay: native MS
native MS = biological target: the molecule itself; assay: native MS

Row | Molecule | stoichiometry N (native MS) | further results
1 | PEDV nsp7-8-His6 precursor (domain or fragment) | – | stoichiometry N [1]: 2
2 | SARS-CoV-2 nsp7-8-His6 precursor (domain or fragment) | – | stoichiometry N [2]: 2
3 | HCoV-229E nsp7-8-His6 precursor (domain or fragment) | – | stoichiometry N [3]: 2
4 | SARS-CoV nsp7-8-His6 precursor (domain or fragment) | – | stoichiometry N [4]: 2
5 | B1 | 2 | –
6 | B2 | 2 | –
7 | B3 | 2 | –
8 | B4 | 2 | –
9 | B5 | 2 | –
